Source: US7589065

Experiments:
DnaK (Escherichia coli) = DnaK (Escherichia coli) (UniProt P0A6Y8); test: cell-based or functional assay
Ala-Ala-Tyr-Ala-Ala = tested on: T1, Ala-Ala-Tyr-Ala-Ala
T1 sequence: AAYAA

Chain of DnaK (Escherichia coli) (P0A6Y8 2-638 limits assumed): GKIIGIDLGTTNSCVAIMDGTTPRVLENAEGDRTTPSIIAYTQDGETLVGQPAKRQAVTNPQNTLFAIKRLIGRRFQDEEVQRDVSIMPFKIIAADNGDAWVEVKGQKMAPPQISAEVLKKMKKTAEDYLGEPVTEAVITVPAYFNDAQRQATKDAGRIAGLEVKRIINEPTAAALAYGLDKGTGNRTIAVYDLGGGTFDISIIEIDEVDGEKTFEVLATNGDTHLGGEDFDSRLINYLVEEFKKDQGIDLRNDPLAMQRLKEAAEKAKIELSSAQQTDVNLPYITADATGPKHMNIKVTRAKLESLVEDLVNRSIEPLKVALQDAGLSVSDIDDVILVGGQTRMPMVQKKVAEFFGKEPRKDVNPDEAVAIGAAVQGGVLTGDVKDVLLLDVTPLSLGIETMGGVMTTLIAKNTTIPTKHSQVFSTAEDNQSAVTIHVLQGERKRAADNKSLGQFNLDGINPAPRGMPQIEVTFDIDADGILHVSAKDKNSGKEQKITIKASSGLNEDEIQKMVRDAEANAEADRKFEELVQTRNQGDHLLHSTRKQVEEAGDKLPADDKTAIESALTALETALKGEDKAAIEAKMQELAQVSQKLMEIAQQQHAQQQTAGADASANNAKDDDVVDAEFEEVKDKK

Q: How did the IC50 of the inhibition of the APIase activity of DnaK (spectrophotometric Ala-Leu assay) (DnaK (Escherichia coli)) turn out when substance P (peptide) was run?
A: 76 µM

Q: For FKBP12, which relative intensity of the cross signal of the Ala-Tyr peptide bond (no addition: 3.50 ± 0.51) (relative intensity) (Ala-Ala-Tyr-Ala-Ala) is on record?
A: 3.94

Q: What about the relative intensity of the cross signal of the Tyr-Ala peptide bond (no addition: 3.89 ± 0.32) (relative intensity) (Ala-Ala-Tyr-Ala-Ala) of the same substance?
A: 2.68
